# B1: anti-bFGF humanized ds-Diabody (other)
# chain: QSVLTQPASVSGSPGQSITISCTGTSSDVGGYNYVSWYQQHPGKAPKLMIYDVSNRPSGVSNRFSGSKSGNTASLTISGLQAEDEADYYCSSYTSSSTVVFGCGTKLTVLGGGGSQVQLQESGGGLVQPGGSLRLSCAASGFTFSSYEMNWVRQAPGKCLEWVSYISSSGSTIYYADSVKGRFTISRDNAKNSLYLQMNSLRAEDTAVYYCARELTGDWGAFDIWGQGTMVTVSSHHHHHH
# notes: Dimer of two VL-GGGGS-VH chains joined covalently by disulfide bonds between Cys at VL 100 and Cys at VH 44; Bivalent; Expressed in HEK 293T cells and purified on a Ni column; also called disulfide bond stabilized-diabody; VL-GGGGS-VH; not shown: N-terminal residues from the vector p3XFLAG-Myc-CMV-25, if any stay on the secreted protein
# Target: T1, basic Fibroblast Growth Factor (bFGF) (human, UniProt P09038 143-288, limits assumed)
# T1 construct: Bought recombinant protein; It was coated on ELISA plates; also called recombined humanized bFGF; antigen bFGF
# T1 sequence (P09038 143-288 limits assumed): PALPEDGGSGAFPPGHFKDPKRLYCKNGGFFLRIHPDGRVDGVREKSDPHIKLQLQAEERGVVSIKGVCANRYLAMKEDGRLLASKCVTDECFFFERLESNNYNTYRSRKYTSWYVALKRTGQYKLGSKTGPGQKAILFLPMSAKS
# Test: indirect ELISA: bFGF coated at 0.5 ug/ml, anti-His-tag detection, A450
# Description: The recombined humanized bFGF (Sigma-Aldrich Co.) was diluted to 0.5 μg/ml with carbonate buffer solution (0.05 mol/L, pH9.6) to coat ELISA plates at an amount of 100 μL/well, and incubated at 37° C. for 3 h. After discarding the liquid in the well, the plates were washed with PBST (PBS, 0.015 mol/L, pH 7.4, comprising Tween 20 0.05% (v/v)) for three times, blocked with fat-free milk-PBST 5% (wt), added with the ds-Diabody and anti-bFGF ScFv prepared according to example 1 at a certain concentration to achieve an amount of 100 μL/well. Then the plates were incubated at 37° C. for 1 h, washed with PBST for three times, added with 100 μL/well diluted anti-His-tag mouse monoclonal antibody 1:2000 (v/v) (sigma-aldrich Co.), incubated at 37° C. for 1 h, washed with PBS-T for three times again, and then added with diluted HRP marked goat anti-mouse polyclonal antibody (1:8000 (v/v) (sigma-aldrich Co.), and incubated at 37° C. for 0.5 h. After that, the plates were washed with PBS-T for 5 times, stained by TMB and detected at A450. Meanwhile, PBS was used as a negative control.
binder,measurement,value
B1,binding result,binds
